Laboratory results: the supplement of paper PMC10567573

B1: STK38L (parent)
chain: NWKETLVFPPEVPISEKAKDLILR

Variants of: B1
Test: protein stability index of a GFP-peptide fusion (GPS, HEK-293T) (PSI 1-6); higher = more stable
Conditions: c terminus: a fixed tail appended
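Note: lentivirally expressed fusions sorted by FACS into six bins by GFP to DsRed ratio, PSI derived from sequencing read proportions per bin multiplied by bin number.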

Row | Variant | protein stability index
1 | NWKETLVFPCEVPISEKAKDLILR [P10C] | 2.81
2 | NWKETLVFPDEVPISEKAKDLILR [P10D] | 3.43
3 | NWKETLVFPYEVPISEKAKDLILR [P10Y] | 2.48
4 | NWKETLVFPHEVPISEKAKDLILR [P10H] | 3.03
5 | NWKETLVFPLEVPISEKAKDLILR [P10L] | 2.81
6 | NWKETLVFPTEVPISEKAKDLILR [P10T] | 3.35
7 | NWKETLVFPPEVPISEKAKDIILR [L21I] | 3.27
8 | NWKETLVFPPEVPISEKAKDDILR [L21D] | 3.72
9 | NWKETLVFPPEVPISEKAKDPILR [L21P] | 3.69
10 | NWKETLVFPPEVPISEKAKDAILR [L21A] | 3.35
11 | NWKETLVFPPEVPISEKAKDSILR [L21S] | 3.72
12 | NWKETLVFPPEVPISEKAKDFILR [L21F] | 2.63
13 | NWKETLVFPPMVPISEKAKDLILR [E11M] | 2.39
14 | NWKETLVFPPWVPISEKAKDLILR [E11W] | 2.63
15 | NWKETLVFPPSVPISEKAKDLILR [E11S] | 2.3
16 | NWKETLVFPPTVPISEKAKDLILR [E11T] | 2.68
17 | NWKETLVFPPAVPISEKAKDLILR [E11A] | 2.87
18 | NWKETLVFPPQVPISEKAKDLILR [E11Q] | 3.36
19 | NWKETLVFPPRVPISEKAKDLILR [E11R] | 2.87
20 | NWKETLVFPPNVPISEKAKDLILR [E11N] | 2.69
21 | NWKETLVFPPEVPISEKAWDLILR [K19W] | 2.26
22 | NWKETLVFPPEVPISEKALDLILR [K19L] | 1.49
23 | NWKETLVFPPEVPISEKADDLILR [K19D] | 3.38
24 | NWKETLVFPPEVPISEKASDLILR [K19S] | 3.53

Row | Variant | protein stability index
25 | NWKETLVFPPEVPISEKAGDLILR [K19G] | 2.96
26 | NWKETLVFPPEVPISEKAEDLILR [K19E] | 3.77
27 | NWKETLVFPPEVPISEKARDLILR [K19R] | 2.96
28 | NWKETLVFPPEVPISEKANDLILR [K19N] | 3.07
29 | NWKETLVFPPEVPISEKAADLILR [K19A] | 2.69
30 | NWKETLVFPPEVPISEKAKDLIHR [L23H] | 3.78
31 | NWKETLVFPPEVPISEKAKDLISR [L23S] | 3.94
32 | NWKETLVFPPEVPISEKAKDLIYR [L23Y] | 2.99
33 | NWKETLVFPPEVPISEKAKDLITR [L23T] | 3.77
34 | NWKETLVFPPEVPISEKAKDLIER [L23E] | 4.15
35 | NWKETLVFPPEVPISEKAKDLIMR [L23M] | 2.6
36 | NWKETLVNPPEVPISEKAKDLILR [F8N] | 3.1
37 | NWKETLVCPPEVPISEKAKDLILR [F8C] | 4.02
38 | NWKETLVHPPEVPISEKAKDLILR [F8H] | 3.33
39 | NWKETLVMPPEVPISEKAKDLILR [F8M] | 3.78
40 | NWKETLVDPPEVPISEKAKDLILR [F8D] | 3.9
41 | NWKETLVIPPEVPISEKAKDLILR [F8I] | 3.43
42 | NWKETLVKPPEVPISEKAKDLILR [F8K] | 4.21
43 | NWKETLVWPPEVPISEKAKDLILR [F8W] | 3.5
44 | NWKETLVAPPEVPISEKAKDLILR [F8A] | 4.08
45 | NWKETLVFPPEVPASEKAKDLILR [I14A] | 3.44
46 | NWKETLVFPPEVPFSEKAKDLILR [I14F] | 2.32
47 | NWKETLVFPPEVPNSEKAKDLILR [I14N] | 3.38
48 | NWKETLVFPPEVPWSEKAKDLILR [I14W] | 2.05

Row | Variant | protein stability index
49 | NWKETLVFPPEVPYSEKAKDLILR [I14Y] | 2.1
50 | NWKETLVFPPEVPHSEKAKDLILR [I14H] | 2.84
51 | NWKETLVFPPEVPLSEKAKDLILR [I14L] | 2.88
52 | NWKETLVFPPEVPTSEKAKDLILR [I14T] | 4.42
53 | NWKETLVFPPEDPISEKAKDLILR [V12D] | 3.55
54 | NWKETLVFPPENPISEKAKDLILR [V12N] | 3.26
55 | NWKETLVFPPEYPISEKAKDLILR [V12Y] | 2.62
56 | NWKETLVFPPECPISEKAKDLILR [V12C] | 2.73
57 | NWKETLVFPPEQPISEKAKDLILR [V12Q] | 2.89
58 | NWKETLVFPPEFPISEKAKDLILR [V12F] | 3.05
59 | NWKETLVFPPEWPISEKAKDLILR [V12W] | 3.95
60 | NWKETLVFPPERPISEKAKDLILR [V12R] | 3.92
61 | NWKETLVFPPEMPISEKAKDLILR [V12M] | 3.15
62 | NWKETLVFPPEKPISEKAKDLILR [V12K] | 3.76
63 | NWKETLVFPPEVPIGEKAKDLILR [S15G] | 2.92
64 | NWKETLVFPPEVPIWEKAKDLILR [S15W] | 2
65 | NWKETLVFPPEVPIIEKAKDLILR [S15I] | 1.89
66 | NWKETLVFPPEVPIYEKAKDLILR [S15Y] | 2.81
67 | NWKETLVFPPEVPIHEKAKDLILR [S15H] | 2.68
68 | NWKETLVFPPEVPIEEKAKDLILR [S15E] | 4.21
69 | NWKETLVFPPEVPIAEKAKDLILR [S15A] | 2.84
70 | NWKETLVFPPEVPIFEKAKDLILR [S15F] | 2.44
71 | NWKETLVFPPEVPIDEKAKDLILR [S15D] | 4.1
72 | NWKEALVFPPEVPISEKAKDLILR [T5A] | 3.27

Row | Variant | protein stability index
73 | NWKENLVFPPEVPISEKAKDLILR [T5N] | 3.36
74 | NWKEDLVFPPEVPISEKAKDLILR [T5D] | 3.65
75 | NWKELLVFPPEVPISEKAKDLILR [T5L] | 2.09
76 | NWKEYLVFPPEVPISEKAKDLILR [T5Y] | 2.62
77 | NWKERLVFPPEVPISEKAKDLILR [T5R] | 3.12
78 | NWKEILVFPPEVPISEKAKDLILR [T5I] | 2.53
79 | NWMETLVFPPEVPISEKAKDLILR [K3M] | 2.42
80 | NWPETLVFPPEVPISEKAKDLILR [K3P] | 3.71
81 | NWIETLVFPPEVPISEKAKDLILR [K3I] | 2.42
82 | NWQETLVFPPEVPISEKAKDLILR [K3Q] | 3.77
83 | NWTETLVFPPEVPISEKAKDLILR [K3T] | 3.23
84 | NWSETLVFPPEVPISEKAKDLILR [K3S] | 3.17
85 | NWRETLVFPPEVPISEKAKDLILR [K3R] | 3.12
86 | NWWETLVFPPEVPISEKAKDLILR [K3W] | 2.07
87 | NWKETLVFYPEVPISEKAKDLILR [P9Y] | 1.96
88 | NWKETLVFDPEVPISEKAKDLILR [P9D] | 2.77
89 | NWKETLVFVPEVPISEKAKDLILR [P9V] | 2.52
90 | NWKETLVFAPEVPISEKAKDLILR [P9A] | 2.69
91 | NWKETLVFKPEVPISEKAKDLILR [P9K] | 2.68
92 | NWKETLVFQPEVPISEKAKDLILR [P9Q] | 4.18
93 | NWKETLVFRPEVPISEKAKDLILR [P9R] | 2.93
94 | NWKETLVFSPEVPISEKAKDLILR [P9S] | 3.06
